Measured values reported in US20050064507.

Legend:
[1] = tested on: T1, CHRM1 peptide RKIPKRPGSVHRTPSRQ (SEQ ID NO:83)
T1 sequence: RKIPKRPGSVHRTPSRQ

[2] = tested on: T2, DGKI peptide NRKKKRTSFKRKA (SEQ ID NO:79)
T2 sequence: NRKKKRTSFKRKA

[3] = tested on: T3, DGKZ peptide KKKKRASFKRKSSKKG (SEQ ID NO:77)
T3 sequence: KKKKRASFKRKSSKKG

[4] = tested on: T4, ERN1 peptide KLAVGRHSFSRRSGV (SEQ ID NO:94)
T4 sequence: KLAVGRHSFSRRSGV

[5] = tested on: T5, GABRB2 peptide QKKSRLRRRASQLKI (SEQ ID NO:84)
T5 sequence: QKKSRLRRRASQLKI

[6] = tested on: T6, KCNH2 peptide RQRKRKLSFRRRTDKD (SEQ ID NO:86)
T6 sequence: RQRKRKLSFRRRTDKD

[7] = tested on: T7, LIMK2 peptide KATTKKRTLRKNDRK (SEQ ID NO:108)
T7 sequence: KATTKKRTLRKNDRK

[8] = tested on: T8, MARCKS peptide KKKRFSFKKSFKLSGFSFKK (SEQ ID NO:111)
T8 sequence: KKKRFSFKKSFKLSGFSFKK

[9] = tested on: T9, MGC2941 peptide RPTPGDGEKRSRIKKSKKRK (SEQ ID NO:139)
T9 sequence: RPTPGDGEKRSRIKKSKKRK

[10] = tested on: T10, MYBPC3 peptide LLKKRDSFRTPRDSKLE (SEQ ID NO:103)
T10 sequence: LLKKRDSFRTPRDSKLE

[11] = tested on: T11, NCF1 peptide GAPPRRSSIRNAH (SEQ ID NO:101)
T11 sequence: GAPPRRSSIRNAH

[12] = tested on: T12, NEURL peptide ALRRPSLRREADD (SEQ ID NO:105)
T12 sequence: ALRRPSLRREADD

[13] = tested on: T13, NIK peptide TEGKMARVAWKGKRRSKARK (SEQ ID NO:164)
T13 sequence: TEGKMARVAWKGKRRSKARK

[14] = tested on: T14, PARIS1 peptide EYLERRASRRRAV (SEQ ID NO:89)
T14 sequence: EYLERRASRRRAV

[15] = tested on: T15, PARIS1 peptide RELEQLKAEYLERRASRRRA (SEQ ID NO:148)
T15 sequence: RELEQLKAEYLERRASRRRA

[16] = tested on: T16, PPP1R14A peptide QKRHARVTVKYDRRE (SEQ ID NO:107)
T16 sequence: QKRHARVTVKYDRRE

[17] = tested on: T17, PRKCA peptide RFARKGSLRQKNV (SEQ ID NO:85)
T17 sequence: RFARKGSLRQKNV

[18] = tested on: T18, PSCDBP peptide LSSMFGTLPRKSRKGSVRKQ (SEQ ID NO:144)
T18 sequence: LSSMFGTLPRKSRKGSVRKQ

[19] = tested on: T19, dag kinase iota peptide NRKKKRTSFKRKA (SEQ ID NO:115)
T19 sequence: NRKKKRTSFKRKA

[20] = tested on: T20, dag kinase iota peptide NRKKKRTSFKRKA (SEQ ID NO:117)
T20 sequence: NRKKKRTSFKRKA

[21] = tested on: T21, dag kinase iota peptide PQNSLKASNRKKKRTSFKRK (SEQ ID NO:151)
T21 sequence: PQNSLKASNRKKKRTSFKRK

[22] = tested on: T22, peptide ARIIGEKSFRRSVVG (SEQ ID NO:47)
T22 sequence: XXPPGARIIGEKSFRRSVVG

[23] = tested on: T23, peptide EARLGAASLKFGARD (SEQ ID NO:56)
T23 sequence: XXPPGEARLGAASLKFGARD

[24] = tested on: T24, peptide EGGDRRASGRRK (SEQ ID NO:34)
T24 sequence: XXPPGEGGDRRASGRRK

[25] = tested on: T25, peptide GAPPRRSSIRNAH (SEQ ID NO:20)
T25 sequence: XXPPGGAPPRRSSIRNAH

[26] = tested on: T26, peptide IDYYKKTSNGRLPVK (SEQ ID NO:74)
T26 sequence: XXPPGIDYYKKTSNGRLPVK

[27] = tested on: T27, peptide KFARKSTRRSIRLPE (SEQ ID NO:4)
T27 sequence: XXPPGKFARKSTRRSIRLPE

[28] = tested on: T28, peptide KKKFRTPSFLKKSKK (SEQ ID NO:11)
T28 sequence: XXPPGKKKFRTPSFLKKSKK

[29] = tested on: T29, peptide KKKKKRFSFKKSFKL (SEQ ID NO:12)
T29 sequence: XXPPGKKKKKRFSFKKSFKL

[30] = tested on: T30, peptide KKKKRASFKRKSSKKG (SEQ ID NO:2)
T30 sequence: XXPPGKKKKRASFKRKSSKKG

[31] = tested on: T31, peptide KKRFSFKKSFKLSGFSFKKN (SEQ ID NO:18)
T31 sequence: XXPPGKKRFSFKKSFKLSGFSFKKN

[32] = tested on: T32, peptide KNVVKLLSSRRTQDR (SEQ ID NO:57)
T32 sequence: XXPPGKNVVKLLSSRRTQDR

[33] = tested on: T33, peptide KRPGKKGSNKRPGKR (SEQ ID NO:28)
T33 sequence: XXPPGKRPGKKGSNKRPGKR

[34] = tested on: T34, peptide NYLRRRLSDSNFMAN (SEQ ID NO:38)
T34 sequence: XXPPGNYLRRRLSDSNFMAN

[35] = tested on: T35, peptide RGEGHKPSIAHRDFK (SEQ ID NO:68)
T35 sequence: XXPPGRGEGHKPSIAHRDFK

[36] = tested on: T36, peptide RGFLRSASLGRRASFHLE (SEQ ID NO:15)
T36 sequence: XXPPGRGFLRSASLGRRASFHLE

[37] = tested on: T37, peptide RKIPKRPGSVHRTPSRQ (SEQ ID NO:7)
T37 sequence: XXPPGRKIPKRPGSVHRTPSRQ

[38] = tested on: T38, peptide RKKRKKKSSKSLAHAGVALA (SEQ ID NO:31)
T38 sequence: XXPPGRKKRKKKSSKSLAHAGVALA

[39] = tested on: T39, peptide RRRQKRRTGALVLSRGGKR (SEQ ID NO:71)
T39 sequence: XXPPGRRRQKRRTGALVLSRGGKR

[40] = tested on: T40, peptide VFREHQRSGSYHVRE (SEQ ID NO:45)
T40 sequence: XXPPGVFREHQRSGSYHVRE

[41] = tested on: T41, peptide VLAKKGTSKTPVPE (SEQ ID NO:44)
T41 sequence: XXPPGVLAKKGTSKTPVPE

[42] = tested on: T42, peptide VQQLLRSSNRRLEQL (SEQ ID NO:49)
T42 sequence: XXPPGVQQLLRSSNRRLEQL

Substance: PKC-delta
- in vitro phosphorylation (% of best substrate) [1]: 38
- in vitro phosphorylation (% of best substrate) [2]: 66
- in vitro phosphorylation (% of best substrate) [3]: 76
- in vitro phosphorylation (% of best substrate) [4]: 12
- in vitro phosphorylation (% of best substrate) [5]: 34
- in vitro phosphorylation (% of best substrate) [6]: 42
- in vitro phosphorylation (% of best substrate) [7]: 6
- in vitro phosphorylation (% of best substrate) [8]: 16
- in vitro phosphorylation, 1 uM peptide (% of best substrate) [9]: 31
- in vitro phosphorylation, 10 uM peptide (% of best substrate) [9]: 24
- in vitro phosphorylation (% of best substrate) [10]: 12
- in vitro phosphorylation (% of best substrate) [11]: 13
- in vitro phosphorylation (% of best substrate) [12]: 9
- in vitro phosphorylation, 1 uM peptide (% of best substrate) [13]: 18
- in vitro phosphorylation, 10 uM peptide (% of best substrate) [13]: 26
- in vitro phosphorylation (% of best substrate) [14]: 20
- in vitro phosphorylation, 1 uM peptide (% of best substrate) [15]: 27
- in vitro phosphorylation, 10 uM peptide (% of best substrate) [15]: 14
- in vitro phosphorylation (% of best substrate) [16]: 10
- in vitro phosphorylation (% of best substrate) [17]: 34
- in vitro phosphorylation, 1 uM peptide (% of best substrate) [18]: 35
- in vitro phosphorylation, 10 uM peptide (% of best substrate) [18]: 28
- in vitro phosphorylation, 1 uM peptide (% of best substrate) [19]: 94
- in vitro phosphorylation, 10 uM peptide (% of best substrate) [19]: 99
- in vitro phosphorylation, 1 uM peptide (% of best substrate) [20]: 100
- in vitro phosphorylation, 10 uM peptide (% of best substrate) [20]: 79
- in vitro phosphorylation, 1 uM peptide (% of best substrate) [21]: 27
- in vitro phosphorylation, 10 uM peptide (% of best substrate) [21]: 37
- in vitro phosphorylation (% of best substrate) [22]: 2
- in vitro phosphorylation (% of best substrate) [23]: 2
- in vitro phosphorylation (% of best substrate) [24]: 5
- in vitro phosphorylation (% of best substrate) [25]: 13
- in vitro phosphorylation (% of best substrate) [26]: 0
- in vitro phosphorylation (% of best substrate) [27]: 52
- in vitro phosphorylation (% of best substrate) [28]: 25
- in vitro phosphorylation (% of best substrate) [29]: 24
- in vitro phosphorylation (% of best substrate) [30]: 76
- in vitro phosphorylation (% of best substrate) [31]: 16
- in vitro phosphorylation (% of best substrate) [32]: 2
- in vitro phosphorylation (% of best substrate) [33]: 8
- in vitro phosphorylation (% of best substrate) [34]: 3
- in vitro phosphorylation (% of best substrate) [35]: 1
- in vitro phosphorylation (% of best substrate) [36]: 18
- in vitro phosphorylation (% of best substrate) [37]: 38
- in vitro phosphorylation (% of best substrate) [38]: > 5
- in vitro phosphorylation (% of best substrate) [39]: 1
- in vitro phosphorylation (% of best substrate) [40]: 2
- in vitro phosphorylation (% of best substrate) [41]: 2
- in vitro phosphorylation (% of best substrate) [42]: 2
